How the values were obtained:
[1] = target: EcSkp, biotin conjugate (naked chaperone without fused target) (Escherichia coli) (UniProt P0AEU7); test: asymmetric DAGS ECL, Skp-Bi and FkpA-Ru 250 ng/ml each; sample: pool of anti-HTLV-negative human sera; background signal, duplicate 2
[2] = target: EcSkp, biotin conjugate (naked chaperone without fused target) (Escherichia coli) (UniProt P0AEU7); test: asymmetric DAGS ECL, Skp-Bi and FkpA-Ru 10 ng/ml each; sample: pool of anti-HTLV-negative human sera; background signal, duplicate 1
[3] = target: EcSkp, biotin conjugate (naked chaperone without fused target) (Escherichia coli) (UniProt P0AEU7); test: asymmetric DAGS ECL, Skp-Bi and FkpA-Ru 10 ng/ml each; sample: pool of anti-HTLV-negative human sera; background signal, duplicate 2
[4] = target: EcSkp, biotin conjugate (naked chaperone without fused target) (Escherichia coli) (UniProt P0AEU7); test: asymmetric DAGS ECL, Skp-Bi and FkpA-Ru 250 ng/ml each; sample: pool of anti-HTLV-negative human sera; background signal, duplicate 1
[5] = target: EcFkpA, biotin conjugate (naked chaperone without fused target) (Escherichia coli) (UniProt P45523); test: asymmetric DAGS ECL, FkpA-Bi and Skp-Ru 250 ng/ml each; sample: pool of anti-HTLV-negative human sera; background signal, duplicate 2
Sequence of UniProt P45523 (P45523 26-270 limits assumed): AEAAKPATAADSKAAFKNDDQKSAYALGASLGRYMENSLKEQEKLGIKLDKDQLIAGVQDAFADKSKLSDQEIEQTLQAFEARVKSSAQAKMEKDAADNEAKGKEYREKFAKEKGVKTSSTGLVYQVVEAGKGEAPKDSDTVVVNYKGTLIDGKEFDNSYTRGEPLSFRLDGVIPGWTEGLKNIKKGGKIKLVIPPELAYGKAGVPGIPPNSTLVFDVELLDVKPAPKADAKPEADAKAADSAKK

[6] = target: EcFkpA, biotin conjugate (naked chaperone without fused target) (Escherichia coli) (UniProt P45523); test: asymmetric DAGS ECL, FkpA-Bi and Skp-Ru 10 ng/ml each; sample: pool of anti-HTLV-negative human sera; background signal, duplicate 2
[7] = target: EcFkpA, biotin conjugate (naked chaperone without fused target) (Escherichia coli) (UniProt P45523); test: asymmetric DAGS ECL, FkpA-Bi and Skp-Ru 10 ng/ml each; sample: pool of anti-HTLV-negative human sera; background signal, duplicate 1
[8] = target: EcFkpA, biotin conjugate (naked chaperone without fused target) (Escherichia coli) (UniProt P45523); test: asymmetric DAGS ECL, FkpA-Bi and Skp-Ru 250 ng/ml each; sample: pool of anti-HTLV-negative human sera; background signal, duplicate 1

Sequence of UniProt P0AEU7 (P0AEU7 21-161 limits assumed): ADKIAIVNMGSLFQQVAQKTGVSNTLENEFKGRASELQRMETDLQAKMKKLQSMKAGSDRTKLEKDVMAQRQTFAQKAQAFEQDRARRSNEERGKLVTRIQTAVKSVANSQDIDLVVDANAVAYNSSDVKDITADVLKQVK

Substance	Signal (counts) [1] [counts]	Signal (counts) [2] [counts]	Signal (counts) [3] [counts]	Signal (counts) [4] [counts]	Signal (counts) [5] [counts]	Signal (counts) [6] [counts]	Signal (counts) [7] [counts]	Signal (counts) [8] [counts]
EcFkpA, ruthenium conjugate (naked chaperone without fused target) (from UniProt P45523 26-270)	2760	567	561	2670	–	–	–	–
EcSkp, ruthenium conjugate (naked chaperone without fused target) (from UniProt P0AEU7 21-161)	–	–	–	–	864	439	447	854

Reference: patent US20170184591A1
